According to paper PMC6638009:

Columns and labels:
[1] = molecular target: His-tagged Xa5 (OsTFIIAγ5), labelled with NT-647 (rice (Oryza sativa)) (UniProt A2XZI2); assay: MST; […]; 50 mM Tris-HCl pH 7.8, 150 mM NaCl, 10 mM MgCl2, 0.05% Tween-20; 25°C; […]
[2] = molecular target: His-tagged OsTFIIAγ1, labelled with NT-647 (rice (Oryza sativa)); assay: as above

His-tagged AvrXa7 (natural protein)
Kd [1]: < 1000 nM
Kd [2]: < 1000 nM

His-tagged AvrXa27 (from UniProt A0A0K0GNW2 1-1136) (natural protein)
Kd [2]: < 1000 nM

His-tagged PthXo1 (from UniProt B2SU53 1-1373) (natural protein)
Kd [2]: < 1000 nM
